The supplement of paper PMC9233669
Fewer inactive variants are shown than the library holds.

Assays:
biotinyl-Met-oxazolone = assay: self-aminoacylation, catalytic enhancement (BMO) (fold over background); higher = more active; k-Seq, kA / k0A0; sequences stand for … in GGGAAUGGAUCCACAUCUACGAAUUC…UUCACUGCAGACUUGACGAAGCUG
Procedure, shortened: (§1)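 Catalytic enhancement equals the median kA over the uncatalyzed rate, the latter read from the low-activity peak of a bimodal Gaussian fit. Values of kA came from fitting each sequence's fraction reacted to a pseudo-first-order model, with 1000 bootstraps. Reacted RNA was captured with streptavidin and quantified by triplicate qPCR and Illumina sequencing after 90 minutes at room temperature with 2–1250 μM biotinyl-aminoacyl-oxazolone and 0.43 μM mutagenized RNA pools bearing a 21-nt variable region.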

biotinyl-Trp-oxazolone = assay: self-aminoacylation, catalytic enhancement (BWO) (fold over background); higher = more active; k-Seq, kA / k0A0; sequences stand for … in GGGAAUGGAUCCACAUCUACGAAUUC…UUCACUGCAGACUUGACGAAGCUG
Procedure, shortened: as §1

biotinyl-Leu-oxazolone = assay: self-aminoacylation, catalytic enhancement (BLO) (fold over background); higher = more active; k-Seq, kA / k0A0; sequences stand for … in GGGAAUGGAUCCACAUCUACGAAUUC…UUCACUGCAGACUUGACGAAGCUG
Procedure, shortened: as §1

biotinyl-Val-oxazolone = assay: self-aminoacylation, catalytic enhancement (BVO) (fold over background); higher = more active; k-Seq, kA / k0A0; sequences stand for … in GGGAAUGGAUCCACAUCUACGAAUUC…UUCACUGCAGACUUGACGAAGCUG
Procedure, shortened: as §1

biotinyl-Ile-oxazolone = assay: self-aminoacylation, catalytic enhancement (BIO) (fold over background); higher = more active; k-Seq, kA / k0A0; sequences stand for … in GGGAAUGGAUCCACAUCUACGAAUUC…UUCACUGCAGACUUGACGAAGCUG
Procedure, shortened: as §1

biotinyl-Phe-oxazolone = assay: self-aminoacylation, catalytic enhancement (BFO) (fold over background); higher = more active; k-Seq, kA / k0A0; sequences stand for … in GGGAAUGGAUCCACAUCUACGAAUUC…UUCACUGCAGACUUGACGAAGCUG
Procedure, shortened: as §1

| Sequence | self-aminoacylation (biotinyl-Met-oxazolone) | self-aminoacylation (biotinyl-Trp-oxazolone) | self-aminoacylation (biotinyl-Leu-oxazolone) | self-aminoacylation (biotinyl-Val-oxazolone) | self-aminoacylation (biotinyl-Ile-oxazolone) | self-aminoacylation (biotinyl-Phe-oxazolone) |
| --- | --- | --- | --- | --- | --- | --- |
| CCACACUUCAAACAGUCGGUC [Fam1B.1 aminoacylation ribozyme variant] | 0.735 | 0.848 | 0.622 | 0.945 | 0.75 | 1.09 |
| AAGUUUCCUAAUAGUCGCAAU [Fam3.1 aminoacylation ribozyme variant] | 1.79 | 2.47 | 2.04 | 1.88 | 2.34 | 4.15 |
| AUACUUCAAACAAUCGGUUUG [Fam1A.1 aminoacylation ribozyme variant] | 0.91 | 9.98 | 1.14 | 1.06 | 1.05 | 12.9 |
| CCAGACUUCAAGCUAUCGGUC [Fam1B.1 aminoacylation ribozyme variant] | 1.08 | 0.76 | 1.16 | 1.41 | 1.41 | 1.11 |
| AUUCCCCUGGUCAGCGAGUGA [Fam2.1 aminoacylation ribozyme variant] | 5.69 | 8.52 | 7.02 | 4.24 | 3.66 | 39.5 |
| AUUCACCGAGGUCAUUGGGUG [Fam2.2 aminoacylation ribozyme variant] | 6.99 | 5.88 | 8.02 | 3.88 | 3.83 | 42.6 |
| AUUACCCUGGUUAUCCAGUGA [Fam2.1 aminoacylation ribozyme variant] | 11.5 | 14.2 | 11.6 | 5.13 | 5.5 | 74.4 |
| CCACACUUCAAGCAUUCUGUC [Fam1B.1 aminoacylation ribozyme variant] | 0.32 | 0.372 | 0.284 | 0.497 | 0.414 | 0.618 |
| AUGACCCUGGUCAUCGAGCGA [Fam2.1 aminoacylation ribozyme variant] | 2.99 | 2.48 | 3.09 | 2.31 | 2.2 | 3.71 |
| CUUCACCUAGGUCGUCGGGUG [Fam2.2 aminoacylation ribozyme variant] | 2.39 | 2.19 | 2.43 | 2.54 | 2.2 | 9.55 |
| AAGUUGGCUAAUAGUCGUAAG [Fam3.1 aminoacylation ribozyme variant] | 1.33 | 4.1 | 1.14 | 1.37 | 1.49 | 10.7 |
| AGUCACCUAGGUCAUCGGGGG [Fam2.2 aminoacylation ribozyme variant] | 3.3 | 3.68 | 3.14 | 2.9 | 3.13 | 17.5 |
| AUGCACCUAGGUCAUCGGGGG [Fam2.2 aminoacylation ribozyme variant] | 2.72 | 3.3 | 2.64 | 2.33 | 2.4 | 7.48 |
| CCAAACUUCAAGCAGUCGGUC [Fam1B.1 aminoacylation ribozyme variant] | 1.01 | 0.793 | 1.1 | 1.18 | 1.29 | 0.806 |
| AUUCACGCAGGUCAUCGGGUG [Fam2.2 aminoacylation ribozyme variant] | 4.55 | 5.58 | 4.77 | 4.58 | 3.54 | 41.6 |
| CCACAGUUCAAGCAUUCGGUC [Fam1B.1 aminoacylation ribozyme variant] | 1.84 | 1.86 | 2.04 | 2.33 | 1.88 | 1.61 |
| AUCCACCUAGGUCAUCGGGUG [Fam2.2 aminoacylation ribozyme variant] | 32.1 | 25 | 42 | 17 | 18.4 | 240 |
| ACUCACGUAGGUCAUCGGGUG [Fam2.2 aminoacylation ribozyme variant] | 3.04 | 3.88 | 4.27 | 3.73 | 2.89 | 32.9 |
| AAGUGUGCUAAUAGCCGCAAG [Fam3.1 aminoacylation ribozyme variant] | 1.49 | 2.61 | 1.2 | 1.48 | 1.81 | 3.94 |
| CCACACUUUAAGCAGUCGGUC [Fam1B.1 aminoacylation ribozyme variant] | 0.755 | 0.623 | 0.926 | 0.946 | 0.858 | 1.16 |
| AUGCGCCUAGGUCAUCGGGUG [Fam2.2 aminoacylation ribozyme variant] | 9.32 | 9.8 | 10.7 | 6.24 | 6.21 | 60.9 |

| Sequence | self-aminoacylation (biotinyl-Met-oxazolone) | self-aminoacylation (biotinyl-Trp-oxazolone) | self-aminoacylation (biotinyl-Leu-oxazolone) | self-aminoacylation (biotinyl-Val-oxazolone) | self-aminoacylation (biotinyl-Ile-oxazolone) | self-aminoacylation (biotinyl-Phe-oxazolone) |
| --- | --- | --- | --- | --- | --- | --- |
| AAGUUUGCUAAUACUCGUAAG [Fam3.1 aminoacylation ribozyme variant] | 0.547 | 0.557 | 0.559 | 0.636 | 0.57 | 0.706 |
| AAUUUUGCUAAUAGUGGCAAG [Fam3.1 aminoacylation ribozyme variant] | 0.798 | 0.652 | 0.633 | 0.632 | 0.771 | 0.836 |
| AUUCACCUAAGUCAUCGCGUG [Fam2.2 aminoacylation ribozyme variant] | 13.4 | 15.7 | 17.7 | 7.56 | 6.77 | 110 |
| CCACAGUUAAAGCAAUCGGUC [Fam1B.1 aminoacylation ribozyme variant] | 0.836 | 0.869 | 0.963 | 0.98 | 0.832 | 0.915 |
| AUUCUCGUAGGUCAUCGGGUG [Fam2.2 aminoacylation ribozyme variant] | 11.3 | 9.21 | 12.2 | 7.51 | 6.47 | 77.6 |
| AUUACCCUUUUCAUCGAGUGA [Fam2.1 aminoacylation ribozyme variant] | 6.39 | 7.27 | 6.32 | 3.68 | 2.88 | 25.2 |
| AUUCACCUAGGUCUUCGGGCG [Fam2.2 aminoacylation ribozyme variant] | 3.94 | 2.99 | 5.23 | 2.83 | 2.8 | 13.6 |
| GUUCACCUAGGUCGUCGGGUG [Fam2.2 aminoacylation ribozyme variant] | 2.44 | 2.08 | 2.04 | 2.1 | 1.67 | 11 |
| CUACUUCCAACAAUCGGUUUG [Fam1A.1 aminoacylation ribozyme variant] | 0.713 | 0.678 | 0.645 | 0.76 | 0.747 | 0.87 |
| AUCCACCUAGGUCAUCGCGUG [Fam2.2 aminoacylation ribozyme variant] | 8.4 | 8.63 | 13.9 | 7.73 | 7.45 | 88.1 |
| ACUACCAUGGUCAUCGAGUGA [Fam2.1 aminoacylation ribozyme variant] | 6.31 | 9.5 | 7.97 | 4.53 | 4.61 | 34.8 |
| AUUCUCCUAAGUCAUCGGGUG [Fam2.2 aminoacylation ribozyme variant] | 16 | 16 | 21.3 | 9.67 | 10.3 | 154 |
| CCAAACUUCAUGCAAUCGGUC [Fam1B.1 aminoacylation ribozyme variant] | 0.703 | 0.611 | 0.864 | 1 | 0.959 | 0.558 |
| AUUAACCUGGUUAUCGAGUGA [Fam2.1 aminoacylation ribozyme variant] | 8.32 | 10.7 | 9.67 | 3.81 | 4.13 | 41.7 |
| AUUCACAUAGGUCAUCGUGUG [Fam2.2 aminoacylation ribozyme variant] | 0.835 | 0.867 | 0.942 | 0.841 | 0.867 | 2.09 |
| CCACAAUUCAAGCAAUCGGUG [Fam1B.1 aminoacylation ribozyme variant] | 8.06 | 8.78 | 12.3 | 5.99 | 6.36 | 60.3 |
| AAUACGCUGGUCAUCGAGUGA [Fam2.1 aminoacylation ribozyme variant] | 4.31 | 5.67 | 5 | 3.88 | 3.67 | 15.1 |
| AAGUUAGCUAAUAGUGGCAAG [Fam3.1 aminoacylation ribozyme variant] | 0.809 | 0.543 | 0.554 | 0.648 | 0.718 | 0.615 |
| GCAUACUUCAAGCAAUCGGUC [Fam1B.1 aminoacylation ribozyme variant] | 2.03 | 18 | 2.19 | 2.01 | 2.35 | 19.8 |
| AUUCACUUAGGUCAUCCGGUG [Fam2.2 aminoacylation ribozyme variant] | 6.26 | 6.84 | 8.78 | 4.72 | 4.64 | 43.4 |
| CCACAAUUCAAGCGAUCGGUC [Fam1B.1 aminoacylation ribozyme variant] | 1.28 | 1.12 | 1.56 | 1.47 | 1.37 | 1.53 |
